Numbering of substitutions follows the chain as printed.
B1: Z1: maize EPSPS mutant I, SEQ ID NO: 12, containing only a single mutation K94(85)I (protein)
chain: MAVQAGAEEIVLQPIKEISGTVKLPGSKSLSNRILLLAALSEGTTVVDNLLNSEDVHYMLGALRTLGLSVEADKAAKRAVVVGCGGKFPVEDSIEEVQLFLGNAGTAMRPLTAAVTAAGGNATYVLDGVPRMRERPIGDLVVGLKQLGADVDCFLGTDCPPVRVNGIGGLPGGKVKLSGSISSQYLSALLMAAPLALGDVEIEIIDKLISIPYVEMTLRLMERFGVKAEHSDSWDRFYIKGGQKYKSPKNAYVEGDASSASYFLAGAAITGGTVTVEGCGTTSLQGDVKFAEVLEMMGAKVTWTETSVTVTGPPREPFGRKHLKAIDVNMNKMPDVAMTLAVVALFADGPTAIRDVASWRVKETERMVAIRTELTKLGASVEEGPDYCIITPPEKLNVTAIDTYDDHRMAMAFSLAACAEVPVTIRDPGCTRKTFPDYFDVLSTFVKN
modifications: Zea mays EPSPS mutant with mutation K94(85)I
B2: Z0: wild-type maize EPSPS represented by SEQ ID NO: 10; control group of Example 6 (protein)
chain: B1 chain with I94K
modifications: Zea mays

Legend:
[1] = system: transgenic rice seedlings; experiment: glyphosate resistance of the EPSPS mutant in transgenic rice plants sprayed with glyphosate (Example 8, Table 1); assay type: in vivo, rice (Nipponbare); conditions: for survival of transformed rice seedlings (in words): 2× and 5× glyphosate dosages; for glyphosate resistance of transformed rice seedlings (in words): glyphosate sprayed at the 1× dosage
Text: A method for detecting the glyphosate resistance of the G1 soybean EPSPS mutant (SEQ ID NO: 20), G2 soybean EPSPS mutant (SEQ ID NO: 22) and G3 soybean EPSPS mutant (SEQ ID NO: 24) provided in Example 7, the R1 rice EPSPS mutant (SEQ ID NO: 4) provided in Example 5, and the Z1 maize EPSPS mutant (SEQ ID NO: 12) provided in Example 6 in the transgenic rice is as follows:
The plasmids (containing the EPSPS mutant gene) of the monoclonal resistant bacteria of pADV5-EPSPS in Examples 1-7 were extracted by a conventional method, followed by double enzyme digestion by Pac1 and BstEII, the small fragments were collected, and then the small fragments were ligated, using T4 DNA ligase, to the pGVP1 vectors that had undergone the same double enzyme digestion, to obtain a pGVP1-EPSPS vector having a structure as shown in FIG. 8.
In the present example, the glyphosate resistance of the EPSPS mutant in transgenic rice plants were verified. An experiment method is as follows:
The transgenic rice seedlings transplanted were uniformly arranged in a same experiment area (preventing leaves from overlapping). The areas occupied by the experiment groups and the control group were calculated, and according to the areas, glyphosate was sprayed at a 1× dosage of 1060 g/hectare (0.106 g/m^2). 2× dosage was 2120 g/hectare, 5× dosage was 5300 g/hectare, and 20× dosage was 21200 g/hectare.
Commercially available Roundup® 41% ammonium glyphosate was used. Roundup® ammonium glyphosate with corresponding volumes was taken according to the above sprayed concentrations, then diluted with 20 times of volume of water, and then uniformly sprayed on the plants in the experiment groups and the control group. After leaf surfaces were dry, the plants were moved into greenhouse or outdoor to cultivate.
After the glyphosate was sprayed at the 1× dosage, growth states of the plants in each group were observed and recorded on a 10th day, and glyphosate was sprayed to the survived plants at the 2× dosage. The growth states of the plants in each group were observed and recorded 10 days later, and glyphosate was sprayed to the survived plants at the 5× dosage. The growth states of the plants in each group were observed and recorded 10 days later, and glyphosate was sprayed to the survived plants at the 20× dosage. The growth states of the plants in each group were observed and recorded 10 days later, and results are shown in Table 1, wherein corresponding numbers of plants denoted by −, +, ++ and +++ are listed, and “%++&+++” is percentage of plant having medium and high glyphosate resistance to the total number of plants observed.

double knockout E. coli = experiment: growth of E. coli transformed by genes encoding maize EPSPS (wild type and mutants) in culture media containing different glyphosate concentrations (Example 6, FIG. 2); assay type: cell-based
Text: E. coli transformed by the gene (SEQ ID NO: 9, which encoded the wild-type maize EPSPS represented by SEQ ID NO: 10) encoding the wild-type maize EPSPS was taken as a control group.
E. coli transformed by the gene (SEQ ID NO: 11, which encoded SEQ ID NO: 12) encoding the maize EPSPS mutant I that contained only a single mutation K94(85)I, was taken as Experiment Group 1.
E. coli transformed by the gene (with a nucleotide sequence represented by SEQ ID NO: 13, and the amino acid sequence of the encoded three-mutation maize EPSPS mutant is represented by SEQ ID NO: 14) encoding the maize EPSPS mutant that contained only three mutations G105(96)A, P110(101)S and K207(194)R but no mutation K94(85)I, was taken as Experiment Group 2.
E. coli transformed by the gene (SEQ ID NO: 15) encoding the maize EPSPS mutant (containing four mutations: K94(85)I, G105(96)A, P110(101)S and K207(194)R) provided in Example 3 was taken as Experiment Group 3.
The glyphosate resistance of the gene encoding the maize EPSPS mutant and the maize EPSPS mutant encoded thereby in the E. coli was verified by detecting the growth situation of the transformed E. coli in culture media containing different glyphosate concentrations (0, 1, 20, 50 mM). In the above, the E. coli used is double knockout E. coli.
Results are as shown in FIG. 2 (wherein Z0 represents a control group, Z1 represents Experiment Group 1, Z2 represents Experiment Group 2, and Z3 represents Experiment Group 3).

[2] = 1X dosage (1060 g/hectare glyphosate), recorded on 10th day
[3] = 2X dosage (2120 g/hectare) sprayed to plants surviving 1X, recorded 10 days later
[4] = 5X dosage (5300 g/hectare) sprayed to plants surviving 2X, recorded 10 days later
[5] = 20X dosage (21200 g/hectare) sprayed to plants surviving 5X, recorded 10 days later
[6] = culture media containing 1 mM glyphosate

| Molecule | % ++&+++ (percentage of plant having medium and high glyphosate resistance to the total number of plants observed) [1, 2] [%] | number of plants with resistance + (low glyphosate resistance) [1, 2] | number of plants with resistance ++ (medium glyphosate resistance) [1, 2] | number of plants with resistance +++ (high glyphosate resistance) [1, 2] | number of plants with resistance − (no glyphosate resistance) [1, 2] | % ++&+++ (percentage of plant having medium and high glyphosate resistance to the total number of plants observed) [1, 3] [%] | number of plants with resistance + (low glyphosate resistance) [1, 3] | number of plants with resistance ++ (medium glyphosate resistance) [1, 3] | number of plants with resistance +++ (high glyphosate resistance) [1, 3] | number of plants with resistance − (no glyphosate resistance) [1, 3] | survival of transformed rice seedlings (in words) [1] | % ++&+++ (percentage of plant having medium and high glyphosate resistance to the total number of plants observed) [1, 4] [%] | number of plants with resistance + (low glyphosate resistance) [1, 4] | number of plants with resistance ++ (medium glyphosate resistance) [1, 4] | number of plants with resistance +++ (high glyphosate resistance) [1, 4] | number of plants with resistance − (no glyphosate resistance) [1, 4] | % ++&+++ (percentage of plant having medium and high glyphosate resistance to the total number of plants observed) [1, 5] [%] | number of plants with resistance + (low glyphosate resistance) [1, 5] | number of plants with resistance ++ (medium glyphosate resistance) [1, 5] | number of plants with resistance +++ (high glyphosate resistance) [1, 5] | other results |
| --- | --- | --- | --- | --- | --- | --- | --- | --- | --- | --- | --- | --- | --- | --- | --- | --- | --- | --- | --- | --- | --- |
| B1 | 10.5 | 1 | 2 | 0 | 16 | 0.0 | 3 | 0 | 0 | 16 | some of the rice seedlings transformed by the maize EPSPS mutant Z1 survived | 0.0 | 2 | 0 | 0 | 17 | 0.0 | 0 | 0 | 0 | number of plants with resistance − (no glyphosate resistance) [1, 5]: 19; glyphosate resistance of transformed rice seedlings (in words) [1]: obviously superior to that of Z0; growth of transformed E. coli (double knockout E. coli; culture media containing 0 mM glyphosate and 1 mM glyphosate): obviously superior to that of control group (Z0); growth of transformed E. coli (double knockout E. coli; [6]): obviously superior to that of the control group (Z0) |
| B2 | 0.0 | 4 | 0 | 0 | 16 | 0.0 | 0 | 0 | 0 | 20 | no rice transformed by the wild-type maize EPSPS Z0 survived | 0.0 | 0 | 0 | 0 | 20 | 0.0 | 0 | 0 | 0 | number of plants with resistance − (no glyphosate resistance) [1, 5]: 20; glyphosate resistance of transformed rice seedlings (in words) [1]: no plant having medium or high glyphosate resistance; growth of transformed E. coli (double knockout E. coli; [6]): weak |
